The target in assay [1] is Trigger factor (Escherichia coli) (UniProt P0A850). The following applies: cited from earlier work.
Assay [2] concerns the target native 70S ribosome from E. coli (E. coli) (UniProt P0ADZ0). The experiment in a line: high-speed AFM (HS-AFM); 70S ribosomes without nascent chain partially immobilised on mica, TF in the imaging solution at a molar ratio of 200:1 TF:ribosome; 1 frame/s, 22-25 °C.
The next assay concerns the target Trigger Factor (UniProt P0A850). The experiment in a line: high-speed AFM (HS-AFM); TF alone at 5 uM on mica; projected area and height compared with monomers.
The target in assay [3] is ribosome-nascent chain complex (not stated | E. coli) (UniProt P0ADZ0). Nature of the assay: high-speed AFM (HS-AFM); RNC (2 nM) on mica, TF (1 uM) in the imaging solution, physiological buffer; 1 frame/s, 22-25 °C; dwell time analysis of single binding events.

Trigger Factor (from UniProt P0A850 1-432) (natural protein), sequence (P0A850 whole entry): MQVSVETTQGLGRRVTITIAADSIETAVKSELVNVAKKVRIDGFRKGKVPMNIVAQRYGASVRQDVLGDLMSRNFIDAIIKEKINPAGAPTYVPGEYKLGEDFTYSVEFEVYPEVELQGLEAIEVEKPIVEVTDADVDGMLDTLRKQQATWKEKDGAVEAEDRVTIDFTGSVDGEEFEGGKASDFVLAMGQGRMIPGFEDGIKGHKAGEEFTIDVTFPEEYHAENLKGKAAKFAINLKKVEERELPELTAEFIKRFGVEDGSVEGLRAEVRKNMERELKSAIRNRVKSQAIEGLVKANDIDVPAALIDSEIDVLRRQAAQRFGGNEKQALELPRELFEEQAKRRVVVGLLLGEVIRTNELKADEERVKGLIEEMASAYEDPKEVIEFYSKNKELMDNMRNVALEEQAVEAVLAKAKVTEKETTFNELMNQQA
Trigger factor, sequence (P0A850 whole entry): as above

On to Trigger factor (from UniProt P0A850), for which, in assay [1], the Kd (commonly the equilibrium constant for the complex coming apart) was 1500 nM.
In the case of “Trigger Factor (from UniProt P0A850 1-432) (natural protein)”, the duration of association in assay [2] was below 5 s. Further, the stoichiometry N (commonly a count of units in the complex or per binding partner) with Trigger Factor amounted to 2. In assay [3], this substance returned a duration of association above 5 s, a duration of individual binding events above 30 s, a longest interaction time (exit-tunnel site) below 80 s and a longest interaction time (peripheral site) above 30 s. Also, in assay [3], the mean interaction time (exit-tunnel site) turned out to be 8 s, the mean interaction time (peripheral site) turned out to be 3.9 s and the stoichiometry N was found to be 2.
